Data set [1] deals with HeLa Kyoto. In words: solubility in G1/S (NP-40 vs SDS abundance) (log2 ratio); higher = more soluble. Particulars: cell cycle stage: G1/S.
Data set [2] has as its system HeLa Kyoto. Put plainly: melting temperature (median over replicates), in situ; higher = more thermally stable.
The test system of data set [3] is HeLa Kyoto. In words: solubility change mitosis vs G1/S (difference of NP-40 vs SDS log2 ratios) (log2 ratio difference); higher = more soluble in mitosis.
The test system of data set [4] is HeLa Kyoto. In words: thermal stability score vs G1/S (z-score of summed log2 fold changes over temperatures); higher = more thermally stable than in G1/S.
[5] abbreviates: cell cycle stage: early G1 (4.5 h after nocodazole release).
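Throughout, for melting temperature (median over replicates), in situ: HeLa Kyoto cells synchronized by double thymidine or nocodazole block, proteins quantified by TMT10plex mass spectrometry, three independent biological replicates.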
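Throughout, for solubility change mitosis vs G1/S (difference of NP-40 vs SDS log2 ratios): synchronized HeLa Kyoto cells (double thymidine block for G1/S, nocodazole release for mitosis), protein amounts in NP-40 versus SDS lysates quantified by mass spectrometry, three biological replicates.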
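Throughout, for solubility in G1/S (NP-40 vs SDS abundance): HeLa Kyoto cells arrested at G1/S by double thymidine block, proteins quantified by TMT10plex mass spectrometry in mild NP-40 versus SDS extracts, three biological replicates.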
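Throughout, for thermal stability score vs G1/S (z-score of summed log2 fold changes over temperatures): synchronized HeLa Kyoto cells, proteins quantified by TMT10plex mass spectrometry, three biological replicates, mitosis taken 0.5 h after nocodazole release, G1/S directly after double thymidine block.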

Regarding “MAGGMKVAVSPAVGPGPWGSGVGGGGTVRLLLILSGCLVYGTAETDVNVVMLQESQVCEKRASQQFCYTNVLIPKWHDIWTRIQIRVNSSRLVRVTQVENEEKLKELEQFSIWNFFSSFLKEKLNDTYVNVGLYSTKTCLKVEIIEKDTKYSVIVIRRFDPKLFLVFLLGLMLFFCGDLLSRSQIFYYSTGMTVGIVASLLIIIFILSKFMPKKSPIYVILVGGWSFSLYLIQLVFKNLQEIWRCYWQYLLSYVLTVGFMSFAVCYKYGPLENERSINLLTWTLQLMGLCFMYSGIQIPHIALAIIIIALCTKNLEHPIQWLYITCRKVCKGAEKPVPPRLLTEEEYRIQGEVETRKALEELREFCNSPDCSAWKTVSRIQSPKRFADFVEGSSHLTPNEVSVHEQEYGLGSIIAQDEIYEEASSEEEDSYSRCPAITQNNFLT [NEMP1]”, the “solubility in G1/S (log2)” value in data set [1] was 0.0297. Besides, the melting temperature in data set [2] (cell cycle stage: G1/S) came out at 53.8 °C; in data set [2] (cell cycle stage: mitosis), 54.5 °C. In addition, the “solubility change mitosis (log2)” value in data set [3] turned out to be 0.0939. For the same sequence, the thermal stability score came out at 1.73 in data set [4] (setting [5]) and 6.13 in data set [4] (cell cycle stage: mitosis).
As for “MAGKKVLIVYAHQEPKSFNGSLKNVAVDELSRQGCTVTVSDLYAMNLEPRATDKDITGTLSNPEVFNYGVETHEAYKQRSLASDITDEQKKVREADLVIFQFPLYWFSVPAILKGWMDRVLCQGFAFDIPGFYDSGLLQGKLALLSVTTGGTAEMYTKTGVNGDSRYFLWPLQHGTLHFCGFKVLAPQISFAPEIASEEERKGMVAAWSQRLQTIWKEEPIPCTAHWHFGQ [NQO2]”, the “solubility in G1/S (log2)” value in data set [1] was 0.396. In addition, the melting temperature in data set [2] (cell cycle stage: G1/S) worked out at 59 °C; in data set [2] (cell cycle stage: mitosis), 62 °C. Moreover, the “solubility change mitosis (log2)” value in data set [3] was -0.0114. The figures for the thermal stability score in data set [4] (setting [5]) and in data set [4] (cell cycle stage: mitosis) were -1.69 and -2.35, respectively.
As to “MAGKQAVSASGKWLDGIRKWYYNAAGFNKLGLMRDDTIYEDEDVKEAIRRLPENLYNDRMFRIKRALDLNLKHQILPKEQWTKYEEENFYLEPYLKEVIRERKEREEWAKK [UQCRB]”, in data set [1], the “solubility in G1/S (log2)” value is -0.132. Besides, the melting temperature in data set [2] (cell cycle stage: G1/S) worked out at 53.9 °C; in data set [2] (cell cycle stage: mitosis) it was 52.2 °C. In addition, in data set [3], the “solubility change mitosis (log2)” value was 0.253. For the same sequence, the thermal stability score is -3.18 in data set [4] (setting [5]) and -2.78 in data set [4] (cell cycle stage: mitosis).
“MAGLGHPAAFGRATHAVVRALPESLGQHALRSAKGEEVDVARAERQHQLYVGVLGSKLGLQVVELPADESLPDCVFVEDVAVVCEETALITRPGAPSRRKEVDMMKEALEKLQLNIVEMKDENATLDGGDVLFTGREFFVGLSKRTNQRGAEILADTFKDYAVSTVPVADGLHLKSFCSMAGPNLIAIGSSESAQKALKIMQQMSDHRYDKLTVPDDIAANCIYLNIPNKGHVLLHRTPEEYPESAKVYEKLKDHMLIPVSMSELEKVDGLLTCCSVLINKKVDS [DDAH1]”: in data set [1], the “solubility in G1/S (log2)” value turned out to be 0.157. The melting temperature in data set [2] (cell cycle stage: G1/S) was determined as 55.3 °C; in data set [2] (cell cycle stage: mitosis), 56.1 °C. Also, the “solubility change mitosis (log2)” value in data set [3] was 0.0143. Also, the thermal stability score in data set [4] (setting [5]) was 0.276; in data set [4] (cell cycle stage: mitosis), -0.764.
Regarding “MAGPAWISKVSRLLGAFHNPKQVTRGFTGGVQTVTLIPGDGIGPEISAAVMKIFDAAKAPIQWEERNVTAIQGPGGKWMIPSEAKESMDKNKMGLKGPLKTPIAAGHPSMNLLLRKTFDLYANVRPCVSIEGYKTPYTDVNIVTIRENTEGEYSGIEHVIVDGVVQSIKLITEGASKRIAEFAFEYARNNHRSNVTAVHKANIMRMSDGLFLQKCREVAESCKDIKFNEMYLDTVCLNMVQDPSQFDVLVMPNLYGDILSDLCAGLIGGLGVTPSGNIGANGVAIFESVHGTAPDIAGKDMANPTALLLSAVMMLRHMGLFDHAARIEAACFATIKDGKSLTKDLGGNAKCSDFTEEICRRVKDLD [IDH3A]”, the “solubility in G1/S (log2)” value in data set [1] worked out at 0.45. The melting temperature in data set [2] (cell cycle stage: G1/S) was determined as 54.5 °C; in data set [2] (cell cycle stage: mitosis) it was 54.6 °C. In addition, the “solubility change mitosis (log2)” value in data set [3] was -0.00106. Further, the figures for the thermal stability score in data set [4] (setting [5]) and in data set [4] (cell cycle stage: mitosis) were -0.172 and -1.18, respectively.
As to “MAGPRGALLAWCRRQCEGYRGVEIRDLSSSFRDGLAFCAILHRHRPDLLDFDSLSKDNVFENNRLAFEVAEKELGIPALLDPNDMVSMSVPDCLSIMTYVSQYYNHFCSPGQAGVSPPRKGLAPCSPPSVAPTPVEPEDVAQGEELSSGSLSEQGTGQTPSSTCAACQQHVHLVQRYLADGRLYHRHCFRCRRCSSTLLPGAYENGPEEGTFVCAEHCARLGPGTRSGTRPGPFSQPKQQHQQQLAEDAKDVPGGGPSSSAPAGAEADGPKASPEARPQIPTKPRVPGKLQELASPPAGRPTPAPRKASESTTPAPPTPRPRSSLQQENLVEQAGSSSLVNGRLHELPVPKPRGTPKPSEGTPAPRKDPPWITLVQAEPKKKPAPLPPSSSPGPPSQDSRQVENGGTEEVAQPSPTASLESKPYNPFEEEEEDKEEEAPAAPSLATSPALGHPESTPKSLHPWYGITPTSSPKTKKRPAPRAPSASPLALHASRLSHSEPPSATPSPALSVESLSSESASQTAGAELLEPPAVPKSSSEPAVHAPGTPGNPVSLSTNSSLASSGELVEPRVEQMPQASPGLAPRTRGSSGPQPAKPCSGATPTPLLLVGDRSPVPSPGSSSPQLQVKSSCKENPFNRKPSPAASPATKKATKGSKPVRPPAPGHGFPLIKRKVQADQYIPEEDIHGEMDTIERRLDALEHRGVLLEEKLRGGLNEGREDDMLVDWFKLIHEKHLLVRRESELIYVFKQQNLEQRQADVEYELRCLLNKPEKDWTEEDRAREKVLMQELVTLIEQRNAIINCLDEDRQREEEEDKMLEAMIKKKEFQREAEPEGKKKGKFKTMKMLKLLGNKRDAKSKSPRDKS [MICALL1]”, the “solubility in G1/S (log2)” value in data set [1] is 0.417. In addition, the melting temperature came to 49.4 °C in data set [2] (cell cycle stage: G1/S) and 50.5 °C in data set [2] (cell cycle stage: mitosis). Also, the “solubility change mitosis (log2)” value in data set [3] is -0.0692. Moreover, the thermal stability score in data set [4] (setting [5]) is -0.815; in data set [4] (cell cycle stage: mitosis), 1.14.

These data come from the supplement of paper PMC5998384.
